Test [1] deals with rHuman EGF R/Fc Chimera, CF (Cat# 344-ER) (human) (UniProt P00533). Nature of the test: Multispot ECL; Fab 930 nM.
In test [2] the target is rHuman P-Cadherin/Fc Chimera, CF (Cat# 861-PC) (human) (UniProt P22223). Nature of the test: Multispot ECL; Fab 930 nM.
The target in test [3] is rHuman EGF R/Fc Chimera, CF (Cat# 344-ER) (human) (UniProt P00533). Nature of the test: Multispot ECL; Fab 14.5 nM.
In test [4] the target is rHuman P-Cadherin/Fc Chimera, CF (Cat# 861-PC) (human) (UniProt P22223). Nature of the test: Multispot ECL; Fab 14.5 nM.
The target in test [5] is rHuman EGF R/Fc Chimera, CF (Cat# 344-ER) (human) (UniProt P00533). Nature of the test: Multispot ECL; Fab 58.1 nM.
Test [6] has as its target rHuman P-Cadherin/Fc Chimera, CF (Cat# 861-PC) (human) (UniProt P22223). Nature of the test: Multispot ECL; Fab 58.1 nM.
For test [7], the target named is rHuman EGF R/Fc Chimera, CF (Cat# 344-ER) (human) (UniProt P00533). Nature of the test: Multispot ECL; Fab 232.5 nM.
Test [8] concerns the target rHuman P-Cadherin/Fc Chimera, CF (Cat# 861-PC) (human) (UniProt P22223). Nature of the test: Multispot ECL; Fab 232.5 nM.
In test [9] the target is rHuman EGF R/Fc Chimera, CF (Cat# 344-ER) (human) (UniProt P00533). Nature of the test: Multispot ECL; Fab […].
In test [10] the target is rHuman ErbB2/Fc Chimera, CF (Cat# 1129-ER) (human) (UniProt P04626). Nature of the test: Multispot ECL; Fab […].
Test [11] deals with rHuman Erythropoietin R/Fc Chimera, CF (Cat# 963-ER) (human) (UniProt P19235). Nature of the test: Multispot ECL; Fab […].
rHuman Erythropoietin R/Fc Chimera, CF (Cat# 963-ER) (human), sequence (P19235 25-250, change not shown): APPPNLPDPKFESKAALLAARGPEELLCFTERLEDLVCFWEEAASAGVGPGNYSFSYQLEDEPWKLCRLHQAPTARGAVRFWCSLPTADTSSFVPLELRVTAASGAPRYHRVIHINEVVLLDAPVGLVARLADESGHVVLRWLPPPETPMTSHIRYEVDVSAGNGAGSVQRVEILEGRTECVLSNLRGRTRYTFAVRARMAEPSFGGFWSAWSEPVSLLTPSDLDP
Test [12] concerns the target rHuman HGF R/c-MET/Fc Chimera, CF (Cat# 358-MT/CF) (human) (UniProt P08581). Nature of the test: Multispot ECL; Fab […].
Test [13] deals with rHuman IGF-1 sR, (IGF-1 sR), CF (Cat# 391-GR) (human) (UniProt P08069). Nature of the test: Multispot ECL; Fab […].
The target in test [14] is rHuman Notch-1/Fc Chimera, CF (Cat# 3647-TK) (human) (UniProt P46531). Nature of the test: Multispot ECL; Fab […].
In test [15] the target is rHuman EGF R/Fc Chimera, CF (Cat# 344-ER) (human) (UniProt P00533). Nature of the test: Multispot ECL; Fab 210 nM.
Test [16] addresses rHuman ErbB2/Fc Chimera, CF (Cat# 1129-ER) (human) (UniProt P04626). Nature of the test: Multispot ECL; Fab 210 nM.
The target in test [17] is rHuman Erythropoietin R/Fc Chimera, CF (Cat# 963-ER) (human) (UniProt P19235). Nature of the test: Multispot ECL; Fab 210 nM.
Test [18] concerns the target rHuman HGF R/c-MET/Fc Chimera, CF (Cat# 358-MT/CF) (human) (UniProt P08581). Nature of the test: Multispot ECL; Fab 210 nM.
Test [19] has as its target rHuman IGF-1 sR, (IGF-1 sR), CF (Cat# 391-GR) (human) (UniProt P08069). Nature of the test: Multispot ECL; Fab 210 nM.
The target in test [20] is rHuman Notch-1/Fc Chimera, CF (Cat# 3647-TK) (human) (UniProt P46531). Nature of the test: Multispot ECL; Fab 210 nM.
Test [21] deals with rHuman EGF R/Fc Chimera, CF (Cat# 344-ER) (human) (UniProt P00533). Nature of the test: Multispot ECL; Fab 3.3 nM.
Test [22] addresses rHuman ErbB2/Fc Chimera, CF (Cat# 1129-ER) (human) (UniProt P04626). Nature of the test: Multispot ECL; Fab 3.3 nM.
Test [23] addresses rHuman Erythropoietin R/Fc Chimera, CF (Cat# 963-ER) (human) (UniProt P19235). Nature of the test: Multispot ECL; Fab 3.3 nM.
Test [24] deals with rHuman HGF R/c-MET/Fc Chimera, CF (Cat# 358-MT/CF) (human) (UniProt P08581). Nature of the test: Multispot ECL; Fab 3.3 nM.
Test [25] has as its target rHuman IGF-1 sR, (IGF-1 sR), CF (Cat# 391-GR) (human) (UniProt P08069). Nature of the test: Multispot ECL; Fab 3.3 nM.
The target in test [26] is rHuman Notch-1/Fc Chimera, CF (Cat# 3647-TK) (human) (UniProt P46531). Nature of the test: Multispot ECL; Fab 3.3 nM.
Test [27] concerns the target rHuman EGF R/Fc Chimera, CF (Cat# 344-ER) (human) (UniProt P00533). Nature of the test: Multispot ECL; Fab 52.5 nM.
Test [28] deals with rHuman ErbB2/Fc Chimera, CF (Cat# 1129-ER) (human) (UniProt P04626). Nature of the test: Multispot ECL; Fab 52.5 nM.
Test [29] has as its target rHuman Erythropoietin R/Fc Chimera, CF (Cat# 963-ER) (human) (UniProt P19235). Nature of the test: Multispot ECL; Fab 52.5 nM.
Test [30] deals with rHuman HGF R/c-MET/Fc Chimera, CF (Cat# 358-MT/CF) (human) (UniProt P08581). Nature of the test: Multispot ECL; Fab 52.5 nM.
The target in test [31] is rHuman IGF-1 sR, (IGF-1 sR), CF (Cat# 391-GR) (human) (UniProt P08069). Nature of the test: Multispot ECL; Fab 52.5 nM.
The target in test [32] is rHuman Notch-1/Fc Chimera, CF (Cat# 3647-TK) (human) (UniProt P46531). Nature of the test: Multispot ECL; Fab 52.5 nM.
Test [33] has as its target rHuman EGF R/Fc Chimera, CF (Cat# 344-ER) (human) (UniProt P00533). Nature of the test: Multispot ECL; Fab 145 nM.
Test [34] concerns the target rHuman Erythropoietin R/Fc Chimera, CF (Cat# 963-ER) (human) (UniProt P19235). Nature of the test: Multispot ECL; Fab 145 nM.
Test [35] deals with rHuman HGF R/c-MET/Fc Chimera, CF (Cat# 358-MT/CF) (human) (UniProt P08581). Nature of the test: Multispot ECL; Fab 145 nM.
For test [36], the target named is rHuman IGF-1 sR, (IGF-1 sR), CF (Cat# 391-GR) (human) (UniProt P08069). Nature of the test: Multispot ECL; Fab 145 nM.
Test [37] concerns the target rHuman Notch-1/Fc Chimera, CF (Cat# 3647-TK) (human) (UniProt P46531). Nature of the test: Multispot ECL; Fab 145 nM.
Test [38] has as its target rHuman P-Cadherin/Fc Chimera, CF (Cat# 861-PC) (human) (UniProt P22223). Nature of the test: Multispot ECL; Fab 145 nM.
Test [39] addresses rHuman EGF R/Fc Chimera, CF (Cat# 344-ER) (human) (UniProt P00533). Nature of the test: Multispot ECL; Fab 580 nM.
The target in test [40] is rHuman ErbB2/Fc Chimera, CF (Cat# 1129-ER) (human) (UniProt P04626). Nature of the test: Multispot ECL; Fab 580 nM.
For test [41], the target named is rHuman Erythropoietin R/Fc Chimera, CF (Cat# 963-ER) (human) (UniProt P19235). Nature of the test: Multispot ECL; Fab 580 nM.
Test [42] has as its target rHuman HGF R/c-MET/Fc Chimera, CF (Cat# 358-MT/CF) (human) (UniProt P08581). Nature of the test: Multispot ECL; Fab 580 nM.
Test [43] addresses rHuman IGF-1 sR, (IGF-1 sR), CF (Cat# 391-GR) (human) (UniProt P08069). Nature of the test: Multispot ECL; Fab 580 nM.
In test [44] the target is rHuman Notch-1/Fc Chimera, CF (Cat# 3647-TK) (human) (UniProt P46531). Nature of the test: Multispot ECL; Fab 580 nM.
For test [45], the target named is rHuman P-Cadherin/Fc Chimera, CF (Cat# 861-PC) (human) (UniProt P22223). Nature of the test: Multispot ECL; Fab 580 nM.
Test [46] addresses rHuman EGF R/Fc Chimera, CF (Cat# 344-ER) (human) (UniProt P00533). Nature of the test: Multispot ECL; Fab 9.1 nM.
Test [47] concerns the target rHuman ErbB2/Fc Chimera, CF (Cat# 1129-ER) (human) (UniProt P04626). Nature of the test: Multispot ECL; Fab 9.1 nM.
The target of test [48] is rHuman Erythropoietin R/Fc Chimera, CF (Cat# 963-ER) (human) (UniProt P19235). Nature of the test: Multispot ECL; Fab 9.1 nM.
In test [49] the target is rHuman HGF R/c-MET/Fc Chimera, CF (Cat# 358-MT/CF) (human) (UniProt P08581). Nature of the test: Multispot ECL; Fab 9.1 nM.
Test [50] addresses rHuman IGF-1 sR, (IGF-1 sR), CF (Cat# 391-GR) (human) (UniProt P08069). Nature of the test: Multispot ECL; Fab 9.1 nM.
Test [51] addresses rHuman Notch-1/Fc Chimera, CF (Cat# 3647-TK) (human) (UniProt P46531). Nature of the test: Multispot ECL; Fab 9.1 nM.
For test [52], the target named is rHuman P-Cadherin/Fc Chimera, CF (Cat# 861-PC) (human) (UniProt P22223). Nature of the test: Multispot ECL; Fab 9.1 nM.
Test [53] concerns the target rHuman EGF R/Fc Chimera, CF (Cat# 344-ER) (human) (UniProt P00533). Nature of the test: Multispot ECL; Fab 36.3 nM.
Test [54] has as its target rHuman ErbB2/Fc Chimera, CF (Cat# 1129-ER) (human) (UniProt P04626). Nature of the test: Multispot ECL; Fab 36.3 nM.
The target in test [55] is rHuman Erythropoietin R/Fc Chimera, CF (Cat# 963-ER) (human) (UniProt P19235). Nature of the test: Multispot ECL; Fab 36.3 nM.
The target of test [56] is rHuman HGF R/c-MET/Fc Chimera, CF (Cat# 358-MT/CF) (human) (UniProt P08581). Nature of the test: Multispot ECL; Fab 36.3 nM.
Test [57] has as its target rHuman IGF-1 sR, (IGF-1 sR), CF (Cat# 391-GR) (human) (UniProt P08069). Nature of the test: Multispot ECL; Fab 36.3 nM.
The target of test [58] is rHuman Notch-1/Fc Chimera, CF (Cat# 3647-TK) (human) (UniProt P46531). Nature of the test: Multispot ECL; Fab 36.3 nM.
The target of test [59] is rHuman P-Cadherin/Fc Chimera, CF (Cat# 861-PC) (human) (UniProt P22223). Nature of the test: Multispot ECL; Fab 36.3 nM.

In patent US20110318339A1 one finds ECL signal data, which are given here for three substances.

Turning to “Fab VH1-46_IGHD6-13*01_IGHJ4*01 & O1_IGKJ1*01”, the ECL signal in [1] is 3110; in test [2] it was 2440; in [3], 357; in test [4], 277; in [5], 444; in test [6], 478. For the same substance, the ECL signal in [7] amounted to 803; in test [8] it was 655.

Take “Fab VH4-31_IGHD2-15*01_IGHJ2*01 & V1-4_IGLJ4*01”: the ECL signal in [9] stood at 824; in test [10] it was 930; in test [11], 776; in test [12], 981; in [13] it was 814; in [14], 669. Moreover, the ECL signal in test [15] is 1620; in test [16], 1980; in test [17], 2120; in [18] it was 2060; in test [19] it was 1430; in test [20] it was 1970. The ECL signal turned out to be 847 in [21]; 1030 in test [22]; 695 in [23]; 849 in test [24]; 743 in [25]; 726 in [26]. In addition, the ECL signal in [27] is 1110; in [28] it was 1510; in test [29], 1320; in [30] it was 1290; in [31], 911; in test [32], 1320.

For “Fab VH4-34_IGHD7-27*01_IGHJ4*01 & V1-4_IGLJ4*01”, the ECL signal in test [33] is 856; in test [34], 845; in [35] it was 1170; in test [36] it was 794; in test [37], 860; in [38], 850. Moreover, the ECL signal in test [39] was 1630; in test [40], 1710; in test [41], 1580; in test [42] it was 2340; in test [43], 1360; in test [44], 1580. The ECL signal in test [45] came out at 2240; in test [46], 800; in test [47], 987; in test [48], 697; in [49] it was 894; in test [50], 788. Further, the ECL signal in test [51] is 754; in test [52], 589; in [53] it was 831; in test [54] it was 1030; in [55], 722; in [56], 1060. Moreover, the ECL signal in [57] is 799; in test [58], 633; in test [59], 684.
